The text below walks through data of publication PMC3098241, “Amyloid-Associated Nucleic Acid Hybridisation” (PLoS ONE, 2011).

Series [1] deals with the molecule itself. The experiment in a line: X-ray fibre diffraction; dried aligned stalks from gels of peptide with salmon testis DNA or poly(A) RNA (5 mM (KL)5 + 5 mM DNA, pH 7, 150 mM NaCl; 16 mM (HL)5 + 10 mM poly(A) RNA pH 6; 1.6 mM TVQFHMH + 1.6 mM DNA pH 5.0; 16 mM TVQFHMH + 10 mM poly(A) RNA pH 6.0; 10 mM (KL)3 + 10 mM DNA; 5 mM (HL)3 + 5 mM DNA pH 6.2); cross-beta pattern as the sign of peptide self-assembly.

Series [2] deals with the molecule itself. Nature of the series: circular dichroism + transmission electron microscopy; 0.8 mM STVIIE, 20 mM glycine pH 2.6, 20 C, spectra every 30 min for 24 h, without or with 242 nM 33mer DNA oligonucleotide (1:100 charge ratio); random coil to beta-sheet transition and fibrils.

B1: TVQFHMH (peptide)
peptide: TVQFHMH
notes: source: synthetic peptide, bought: GL Biochem (PR China) or Peptide 2.0 (USA), 95% purity
For the protein B1, in series [1], the binding result is listed as “binds”.

B2: STVIIE (peptide)
peptide: STVIIE
notes: source: synthetic peptide, bought: Severn Biotech (UK), HPLC-purified
Take B2: in series [2], the binding result was “binds”.
